Data on 14 molecules can be found in patent US20250082754A1 (NANJING LEGEND BIOTECH, published 2025).

One assay has as its target T1, human CD33 protein (human, UniProt P20138 18-259).
T1 construct: extracellular domain; It is not tied to the protein used in the screen, so it is not used here; also called recombinant human CD33 protein; CD33 ECD proteins
The assay is described as follows: SPR (BIACORE T200), antibody fragment captured by affinity tag, 100 nM human CD33 flowed over, estimate from one concentration; column KD; no unit printed on the sheet. How it is done: The scFv proteins in the supernatant were analyzed for their ability to bind to CD33 ECD proteins by ELISA and CD33-overexpressing MV4-11 cell lines by FACS. All binders were sequenced and some were subjected to for further characterization including affinity ranking by surface plasmon resonance (SPR) on a BIACORE® T200 instrument. The experiments were carried out as follows: the crude […] proteins were captured through an affinity tag onto the sensorchip. High-concentration (100 nM) of human CD33 flowed over the sensorchip surface, and was allowed to bind the antibody fragments. On-rate (kon) and off-rate (koff) were roughly calculated based on the association and dissociation of one antigen concentration, and were used to estimate the equilibrium dissociation constant (KD).

A further assay concerns the target T2, Human CD33 C2 domain (human, UniProt P20138).
T2 construct: C2 domain only; also called C2-set Ig-like domain of human CD33
The assay can be described thus: +/- column 'Human CD33 C2 domain' of the drawn table; legend: cell binding properties; assay not named on the sheet.

As usually defined, the Kd is the constant that tells how readily two partners part at equilibrium.

T1 sequence (P20138 18-259): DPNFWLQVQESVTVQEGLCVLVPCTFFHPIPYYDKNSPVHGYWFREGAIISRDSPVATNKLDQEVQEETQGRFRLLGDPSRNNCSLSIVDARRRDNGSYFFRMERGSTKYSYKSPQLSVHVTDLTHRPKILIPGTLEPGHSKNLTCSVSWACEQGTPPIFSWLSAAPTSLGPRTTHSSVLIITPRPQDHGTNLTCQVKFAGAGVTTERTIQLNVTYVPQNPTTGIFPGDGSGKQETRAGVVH
T2 sequence (P20138 145-228 limits assumed): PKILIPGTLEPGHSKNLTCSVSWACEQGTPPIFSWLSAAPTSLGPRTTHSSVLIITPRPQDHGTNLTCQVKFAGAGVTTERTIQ

B1: AS200728C (scFv)
scFv (VL-linker-VH): QAVVTQLSSMSGSPGQTVTITCTGSSSNIGGGYYLSWYQQLPGTAPKLLIYNVNNRASGVPNRFSGSKTGSLASLTITGLQAEDEADYYCGSYDESLSYVFGGGTHLTVLGGGGSGGGGSGGGGSQVQLVESGGGLVQPGGSLRVSCAASGFTFKNYYMGWVRQAPGKGLEWISGINSGGEVTTYADSVKDRFTISRDNAKNTLYLQMNSLKPDDTALYYCAGGEGSSWYPDYYYGNGYWGEGTLITVSS
notes: Format as for f1; also called anti-CD33 IgG1 AS200728C; AS200728C scFv
With B1, the Kd with human CD33 protein was 240 pM.

B2: AS141974 (scFv)
scFv (VL-linker-VH): NFMLTQPAAVSVSLGETARITCQGGNFGSYYASWYQQKPGQAPVLVIYANSNRPSGIPERFSGSSSGGTATLTISGAQAEDEADYYCQSYDSSAAVFGGGTHLTVLGGGGSGGGGSGGGGSQVQLQESGGGLVQPGGSLRLSCAASGFTFSSYAMSWVRQAPGKGLEWVSAINSGGGSTYYADSVKGRFTISRDNAKNTLYLQLNSLKTEDTAMYYCAKEGGLYYSDYDELYFGYWGQGTQVTVSS
notes: Format as for f1; also called anti-CD33 IgG1 AS141974; AS141974 scFv
As to B2, in the assay with Human CD33 C2 domain, the binding result is on record as “no binding (tested: not given)”. In addition, the Kd with human CD33 protein is 1790 pM.

B3: AS141837 (scFv)
scFv (VL-linker-VH): SSELTQPSAVSVSLGETARITCQGVNVGSYYASWYQQKPGQAPVLVIYGNSNRPSGIPERFSGSKSGGTATLTISGAQAEDEADYYCQSADSSAFNAVFGGGTHLTVLGGGGSGGGGSGGGGSQVQLVQSGGGLVQPGGSLRLSCAASGFTFSSYDMTWVRQAPGKGLEWVSAVNSGGGTTYYADSVKGRFTISRDNAKNTLYLQMNSLKTEDTAVYYCATAIEREEDPLWVGPEYNTWGQGTQVTVSS
notes: Format as for f1; also called anti-CD33 IgG1 AS141837; AS141837 scFv
As to B3, the binding result with Human CD33 C2 domain was “no binding (tested: not given)”. The Kd with human CD33 protein was 21400 pM.

B4: AS138521 (scFv)
scFv (VL-linker-VH): SSELTQPAAVSVSLGETARITCQGGNFGSYYATWYQQKPGQAPVLVIYANSNRPSGIPERFSGSSSGGTATLTISGAQAEDEADYYCQSYDNSANAVFGGGTHLTVLGGGGSGGGGSGGGGSEVQLVESGGGLVQPGGSLRLSCAASGSTFWSYYMSWVRQAPGKGLEWVSSIYSDGSYAYYADSVKGRFTISRDNAKNTVYLQMNSLKSEDTALYYCATAPTPDGGSWLWYNYWGQGTQVTVSS
notes: Format as for f1; also called anti-CD33 IgG1 AS138521; AS138521 scFv
For the molecule B4, in the assay with Human CD33 C2 domain, the binding result is reported as “no binding (tested: not given)”. In the assay with human CD33 protein, the Kd is 364 pM.

B5: AS187809 (scFv)
scFv (VL-linker-VH): EIVMTQSPSSVTASAGEKVTINCKSSQSVLYSSNQKSYLAWYQQRPGQSPRLLIYYASTRESGVPDRFSGSGSTTDFTLTISSVQPEDAAVYYCQQGYSAPVTFGQGTKLELKGGGGSGGGGSGGGGSQVQLQESGGGLVQPGGSLRLSCAASGFTFSRYYMSWVRQAPGKGLEWVSSIYSDGSNTYYTDSVKGRFTISRDNAKNTVYLQMNSLKSEDTAQYYCATDRDCSGIHCGAFGYWGQGTQVTVSS
notes: Format as for f1; also called anti-CD33 IgG1 AS187809; AS187809 scFv
As to B5, the Kd in the assay with human CD33 protein is 1080 pM.

B6: AS199757 (scFv)
scFv (VL-linker-VH): NFMLTQPPSVSGSPGQKFTISCTGSSNNIGDNYVNWYQHLPGTAPKLLIYSNNNRASGVPDRFSGSKSGSSASLTITGLQAEDEADYYCSSWDDSLSGFVFGGGTHLTVLGGGGSGGGGSGGGGSAVQLVESGGGLVQPGGSLRLTCAASGFTFDNYGMSWVRQAPGKGLEWVSAIMWNGGTTYYAEPMKGRFTISRDNAKNTVYLQMNSLKSEDTAVYYCARHGSSWYAMDYWGQGTQVTVSS
notes: Format as for f1; also called anti-CD33 IgG1 AS199757; AS199757 scFv
Turning to B6, the Kd with human CD33 protein is 1500 pM.

B7: AS199772 (scFv)
scFv (VL-linker-VH): SYELTQSPSVSVALRQAAKITCRGDNIETKYAYWYQQKPGQSPLLVIYKDDNRPSGIPERFSGSNSGNMATLTISGAQAEDEADYYCQVWDSSANWVFGGGTHLTVLGGGGSGGGGSGGGGSQVQLQESGGGLVQPGGSLRLSCAASGFTFSSYWMYWVRQAPGKGLEWVSAMNTGGGSTYYGDSVKGRFTVSRDNAKNTLALQMNSLKPEDTALYYCARSWGGMYSGGYYEYSGMDYWGKGTLVTVSS
notes: Format as for f1; also called anti-CD33 IgG1 AS199772; AS199772 scFv
In the case of B7, the Kd with human CD33 protein was 67 pM.

B8: AS141962 (scFv)
scFv (VL-linker-VH): QAVLTQPSSVSGTPGQTVTISCAGTSSDVGSTNYVSWYRQLPGTAPKLLIYQVNYRASGIADRFSGSKSGNTASLTISGLQSADEADYYCASRSGNNFVFGGGTHLTVLGGGGSGGGGSGGGGSEVQLVESGGGLVQPGGSLRLSCAASGFTFSDFSIFWVRQAPGKGLEWVSSINFGGDRTYYADSVKGRFTISRNNAENTVYLQMNSLKAEDTAAYHCVTTAVALADCSGGCYTPGAFNAWGQGTLVTISS
notes: Format as for f1; also called anti-CD33 IgG1 AS141962; AS141962 scFv
B8: the binding result with Human CD33 C2 domain is “no binding (tested: not given)”. In addition, the Kd in the assay with human CD33 protein is 3060 pM.

B9: AS188893 (scFv)
scFv (VL-linker-VH): SYELTQPSAVSVSLGQTARITCQGGNLGTSYVHWYQQKPGQAPVLVIYGDDSRPSGIPERFSGSSSGGTATLTISGAQAEDEADYYCQSYDSSSSVFGGGTHLTVLGGGGSGGGGSGGGGSQVQLQESGGGLVQPGGSLRLSCAASGFTFSNNWMYWVRQAPGKGLEWVSSIATGDGSTNSADSVKGRFTISRDNTKNMLYLQMNSLKSEDTALYYCAKGVNIDHDVGAGDYWGQGTQVTVSS
notes: Format as for f1; also called anti-CD33 IgG1 AS188893; AS188893 scFv
With B9, the Kd with human CD33 protein was 64 pM.

B10: AS141869 (scFv)
scFv (VL-linker-VH): NFMLTQPSAVSVSLGETARITCQGGNVGTSYASWYQQKPGQAPVLVIYGNSNRPSGIPERFSGSKSGGTATLTISGAQAEDEADYYCQSADSRGYVAFGGGTHLTVLGGGGSGGGGSGGGGSQVQLQESGGGLVQPGGSLRLSCAASGFTFSSYDITWVRQAPGKGLEWVSAINSGGNSTYYADSVKGRFTISRDNAKNTLYLQMNSLKTEDTAVYYCATAIEREEDPLWVGPEYNYWGQGTQVTVSS
notes: The legend calls it anti-CD33 IgG1; also called anti-CD33 IgG1 AS141869; AS141869 scFv
In the case of B10, the binding result in the assay with Human CD33 C2 domain is given as “no binding (tested: not given)”. For the same molecule, the Kd with human CD33 protein was 11500 pM.

B11: AS142096 (scFv)
scFv (VL-linker-VH): NFMLTQPSAVSVSLGETARITCQGGKVGSNYASWYQQKPGQAPVLVIYGDDSRPSGIPERFSGSSSGGTATLTISGAQAEDEADYYCQSYDSSGYNAVFGGGTHLTVLGGGGSGGGGSGGGGSQVQLVESGGGLVQPGGSLRLSCAASGFTFFSYYMSWVRQAPGKGLEWVSSIYSDGSNTYYADSVKGRFTISRDNAKNTVYLQMNSLKSEDTALYYCATAGYYSDYVEFEYWGQGILVTVSS
notes: Format as for f1; also called anti-CD33 IgG1 AS142096; AS142096 scFv
Turning to B11, in the assay with Human CD33 C2 domain, the binding result is listed as “no binding (tested: not given)”. Moreover, in the assay with human CD33 protein, the Kd was 270 pM.

B12: AS141996 (scFv)
scFv (VL-linker-VH): SSELTQPSAVSVSLGETARITCQGGNVGSSYASWYQQKPGQAPVLVIYEDSERPSGIAERFSGSSSGGTATLTISGAQAEDEADYYCQSADNNGAVFGGGTHLTVLGGGGSGGGGSGGGGSEVQVVESGGGLVQPGGSLRLSCAGSGFTFSSYAMSWVRQAPGKGLEWVSTINSGGGSTYYADSVKGRFTISRDNAKNTLYLQLNSLKTEDTAMYYCANHLLIIYSDYDVRGSEAWETWGQGTLVTVSS
notes: Format as for f1; also called anti-CD33 IgG1 AS141996; AS141996 scFv
Take B12: the binding result with Human CD33 C2 domain was “no binding (tested: not given)”. Also, in the assay with human CD33 protein, the Kd is 62.4 pM.

B13: AS199911 (scFv)
scFv (VL-linker-VH): SYELTQPSALSVTLGQSAKITCQGDNFETTYVHWYQQKPGQAPVLVIYNDDSRPSGIPERFSGSNSGDRATLTISGAQAEDEGDYYCQSADTSGNAYVFGGGTHLTVLGGGGSGGGGSGGGGSAVQLVESGGGLVQPGGSLRLSCAASGFTFSRSDMSWVRQAPGKGLEWVSYINSGGGTNRYADSVKARFTIFRDNAKNTLYLQMNTLKPEDTAVYYCAKSGFDSDWIFGYLERWGQGTLVTVSS
notes: Format as for f1; also called anti-CD33 IgG1 AS199911; AS199911 scFv
As to B13, the Kd in the assay with human CD33 protein is 350 pM.

B14: AS142077 (scFv)
scFv (VL-linker-VH): SYELTQPSAMSVSLGETTRITCQGGNIESSYASWYQQKPGQAPALVIYEDSERPSRIPERFSGSSSGGTATLTISGAQAEDEADYYCQSADSSGYNPVFGGGTHLTVLGGGGSGGGGSGGGGSQVQLVESGGGLVQPGGSLRLSCAASGFTFSSYAMSWVRQAPGKGLEWVSGINSGGGSTYYADSVKGRFTISRDNAKNTLYLQLNSLKTEDTAMYYCAKHLLIIYSDYDVRGSEALDAWGQGTLVTVSS
notes: Format as for f1; also called anti-CD33 IgG1 AS142077; AS142077 scFv
In the case of B14, in the assay with Human CD33 C2 domain, the binding result is recorded as “no binding (tested: not given)”. Moreover, the Kd in the assay with human CD33 protein is 348 pM.
